Article PMC11898728

Biological target: RhoA (human) (UniProt P61586)
UniProt P61586, sequence (P61586 whole entry): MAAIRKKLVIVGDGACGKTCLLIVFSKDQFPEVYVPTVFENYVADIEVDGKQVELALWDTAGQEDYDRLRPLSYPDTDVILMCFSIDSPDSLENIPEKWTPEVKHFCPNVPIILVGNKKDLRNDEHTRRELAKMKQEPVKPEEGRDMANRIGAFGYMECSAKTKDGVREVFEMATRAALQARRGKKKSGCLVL

## VopX (amino acids 26-252), purified (domain or fragment)
  average exchange rate of RhoA in the presence of VopX (in vitro RhoGEF exchange assay with N-MAR-GTP; 1.5 µM GTPase, 0.75 µM N-MAR-GTP, 0.5 µM VopX) (µmol N-MAR-GTP/μmol GTPase/s): 167
